Test results from US20180334496A1 (KODIAK SCIENCES, published 2018).

Assays:
[1] = molecular target: T1, human complement factor D purified from serum (human, UniProt P00746 26-253); test: SPR MX96
T1 construct: serum-purified (CompTech); also called hCFD-Comptech; CFD

[2] = molecular target: T2, recombinant human CFD, His-tagged (human, UniProt P00746 26-253); test: SPR MX96
T2 construct: also called rhCFD-His

[3] = molecular target: T3, recombinant cynomolgus CFD, His-tagged (cynomolgus); test: SPR MX96
T3 construct: also called rcyCFD-His; recombinant Cyno-CFD

[4] = molecular target: T4, recombinant human CFD mutant 1 (R157A, R207A), His-tagged (human, UniProt P00746 26-253); test: SPR MX96
T4 construct: positions are linear positions in the mature protein; also called rhCFD-mut1-His; Mut1
T4 sequence (P00746 26-253 R182A/R232A limits assumed): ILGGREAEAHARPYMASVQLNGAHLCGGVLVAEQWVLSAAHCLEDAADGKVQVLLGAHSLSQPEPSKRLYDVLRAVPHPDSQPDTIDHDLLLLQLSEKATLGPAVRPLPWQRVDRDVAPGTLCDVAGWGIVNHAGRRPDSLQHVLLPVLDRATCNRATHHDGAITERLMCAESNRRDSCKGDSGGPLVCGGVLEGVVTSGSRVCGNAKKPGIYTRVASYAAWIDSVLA

[5] = molecular target: T1, human complement factor D purified from …; test: Biacore, protein A capture

T1 sequence (P00746 26-253): as the sequence (P00746 26-253 R182A/R232A limits assumed) above, with A157R, A207R counted along it
T2 sequence (P00746 26-253 limits assumed): as the sequence (P00746 26-253 R182A/R232A limits assumed) above, with A157R, A207R counted along it

Binder	Kd [1]	Kd [2]	Kd [3]	Kd [4]	Kd [5]	koff [5]	kon [5]
KCD038 (antibody, V domains shown) VH: EVQLQQSGPELVKPGTSMKISCKASGYSFADYTMNWVKQSHGKSLEWIGLINPYNGGTSYNQKFMGKATLTVDKSSSTAYMELLSLTSEDSAVYYCARWGTYSHNYDYAMDYWGQGTSVTVSS VL: DVVMTQTPLSLPVSLGDQASISCRSSQSLVHSNGNTYLYWYFQKPGQSPKFLIYKVSNRFSGISDRFSGSGSGTDFTLKISRVEAEDLGVYFCSQSTHVPPFTFGSGTKLEIK	37 nM	48 nM	45 nM	84 nM	–	–	–
KCD050 (antibody, V domains shown) VH: QVQLKESGPGLVAPSQSLSITCTVSGFSLNSYGVQWVRQPPGQGLEWLVVIWRDGTITYNSALKSRLSINKDNSKSQVFLKMNSLQTDDTAMYYCGRTSHYGNFNYYVMDYWGQGTAVTVSS VL: not shown	2 nM	3.1 nM	8.2 nM	1.9 nM	–	–	–
KCD119 TAF heavy chain / KCD119 TAF light chain (antibody, V domains shown, humanized full IgG captured on protein A; also called TAF KCD119) VH: EVQLVESGGGLVQPGGSLRLSCAASGYTFTDYYMNWVRQAPGKGLEWIGDINPNTGDTSYNADFKRRFTFSLDTSKSTAYLQMNSLRAEDTAVYYCTREGPSFAYWGQGTLVTVSS VL: DIQLTQSPSSLSASVGDRVTITCRSSQTIVHSNGDTYLEWYQQKPGKAPNLLIYKVSNRFSGVPSRFSGSGSGTDFTLTISSLQPEDFATYYCFQGSHVPPTFGQGTKVEIK	–	–	–	–	0.23 nM	0.00103 s⁻¹	4.46e+06 M⁻¹ s⁻¹
54V heavy chain / KCD119 TAF light chain (antibody, V domains shown, IgG; also called 54V/wt) VH: EVQLVESGGGLVQPGGSLRLSCAASGYTFTDYYMNWVRQAPGKGLEWIGDINPVTGDTSYNADFKRRFTFSLDTSKSTAYLQMNSLRAEDTAVYYCTREGPSFAYWGQGTLVTVSS VL: DIQLTQSPSSLSASVGDRVTITCRSSQTIVHSNGDTYLEWYQQKPGKAPNLLIYKVSNRFSGVPSRFSGSGSGTDFTLTISSLQPEDFATYYCFQGSHVPPTFGQGTKVEIK	–	–	–	–	0.153 nM	0.000627 s⁻¹	4.09e+06 M⁻¹ s⁻¹
54V heavy chain / 101V light chain (antibody, V domains shown, IgG) VH: EVQLVESGGGLVQPGGSLRLSCAASGYTFTDYYMNWVRQAPGKGLEWIGDINPVTGDTSYNADFKRRFTFSLDTSKSTAYLQMNSLRAEDTAVYYCTREGPSFAYWGQGTLVTVSS VL: DIQLTQSPSSLSASVGDRVTITCRSSQTIVHSNGDTYLEWYQQKPGKAPNLLIYKVSNRFSGVPSRFSGSGSGTDFTLTISSLQPEDFATYYCFQGSHVPVTFGQGTKVEIK	–	–	–	–	0.0949 nM	0.000463 s⁻¹	4.88e+06 M⁻¹ s⁻¹
54V59D heavy chain / KCD119 TAF light chain (antibody, V domains shown, IgG) VH: EVQLVESGGGLVQPGGSLRLSCAASGYTFTDYYMNWVRQAPGKGLEWIGDINPVTGDTDYNADFKRRFTFSLDTSKSTAYLQMNSLRAEDTAVYYCTREGPSFAYWGQGTLVTVSS VL: DIQLTQSPSSLSASVGDRVTITCRSSQTIVHSNGDTYLEWYQQKPGKAPNLLIYKVSNRFSGVPSRFSGSGSGTDFTLTISSLQPEDFATYYCFQGSHVPPTFGQGTKVEIK	–	–	–	–	0.0526 nM	0.000307 s⁻¹	5.85e+06 M⁻¹ s⁻¹
54V59D heavy chain / 101V light chain (antibody, V domains shown, IgG) VH: EVQLVESGGGLVQPGGSLRLSCAASGYTFTDYYMNWVRQAPGKGLEWIGDINPVTGDTDYNADFKRRFTFSLDTSKSTAYLQMNSLRAEDTAVYYCTREGPSFAYWGQGTLVTVSS VL: DIQLTQSPSSLSASVGDRVTITCRSSQTIVHSNGDTYLEWYQQKPGKAPNLLIYKVSNRFSGVPSRFSGSGSGTDFTLTISSLQPEDFATYYCFQGSHVPVTFGQGTKVEIK	–	–	–	–	0.0321 nM	0.000213 s⁻¹	6.64e+06 M⁻¹ s⁻¹

Now from value to binder:

Kd [1]	Kd [2]	Kd [3]	Kd [4]	Kd [5]	koff [5]	kon [5]	Binder
3.5 nM	2.9 nM	3.6 nM	2.9 nM	–	–	–	KCD210 (antibody, V domains shown) VH: EVQLQQSGPVLVKPGASVTMSCKASGYTFTEYYMNWVKQSHGKSLDWIGVINPYSGGTSYKQKFKDKATLTVDKSSSTAYMELNGLTSEDSAVYFCVRGGLRRNYFDYWGQGTTLTVSS VL: EIVLTQSPALMTASPGEKVTITCSVSSSISSTNLHWYQQKSGTSPKPWIFGTSNLASGVPVRFSGSGSGTSYSLTISNMEAEDAATYYCQQWNSYPFTFGTGTKLEIK
53 nM	43 nM	39 nM	70 nM	–	–	–	KCD039 (antibody, V domains shown) VH: EVQLQQSGPEMVKPGASMKISCKASGYSFADYTLNWVKQSHGKSLEWIGLINPYNGGTSYNQKFMGKATLTVDKSSSTAYMELLSLTSEDSAVYYCTRWGTYSHNYDYAMDYWGQGTSVTVSS VL: DVVMTQTPLSLSVSLGDQASISCRSSQSLVHSNGNTYLYWYLQKPGQSPKLLIYKVSNRFSGITDRFSGSGSGTDFTLKISRVEAEDLGVYFCSQSTHVPPFTFGSGTKLEIK
3.1 nM	3.7 nM	10 nM	2.5 nM	–	–	–	KCD052 (antibody, V domains shown) VH: QVQLKESGPGLVAPSQSLSITCTVSGFSLNSYGVQWVRQPPGQGLEWLGVIWRDGSITYNSALKSRLSIRKDNSKSQVFLKMNSLQTDDTAMYYCGRTSHYGNYNYYVMDYWGQGTAVTVSS VL: not shown
4.4 nM	3.2 nM	66 nM	5.7 nM	–	–	–	KCD008 (antibody, V domains shown) VH: EVQLQQSGPELVKAGASVKMSCTASGFNIKDTYMHWVKQRPEQGLAWIGRIDPANGNIKYDPKFQGKATITADTSSNTAYLQLSSLTSDDTAVYYCTSAMDYWGQGTSVTVSS VL: QIVLTQSPEIMSASPGEKVTMTCSARSSVSYMYWYQQKPGSSPRLLIYDTSNLASGVPVRFSGSGSGTSYSLTISRMETEDAATYYCQQWSTYPFTFGSGTKLEIK
21 nM	13 nM	18 nM	15 nM	–	–	–	KCD135 (antibody, V domains shown) VH: EVQLQQSGPELVKPGASVRMSCKASGYIFTDYSIHWVKQSHGKSLEWIGYINPNNGGTSYNQKFKGKATLTVNKSSTTAYMELRSLTSEDSAVYFCARDTTIVGDYWGQGTTLTVSS VL: DIVMTQSQKFMSTSVGDRVSVTCKASQHVGTNVVWYQQKPGQSPKALIYSASYRYSGVPDRFSGSGSGTDFTLTISNVQSEDLAEYFCQQFNSYPLTFGGGTKLEIK
41 nM	41 nM	52 nM	99 nM	–	–	–	KCD018 (antibody, V domains shown) VH: QVQLQQSAAELARPGASVKMSCKASGYTFTSYTVHWVKQRPGQGLEWIGYINPSSGFTDYNQKFKDKTTLTADISSSTAYIQLSSLTSEDSAVYYCARRGVNWSWFAYWGQGTLVTVSA VL: NIMMTQSPSSLAVSAGEKVTMSCKSSQSVLYSSNQKNYLAWYQQKPGQSPQLLIYWASTRESGVPERFTGSGSGTDFTLTISSVQAEDLAVYYCHQYLSSWTFGGGTKLEIK
3.3 nM	17 nM	25 nM	25 nM	–	–	–	KCD065 (antibody, V domains shown) VH: QVQLQQSGAELARPGASVKMSCKASGYTFTTYTIHWVKQRPGQGLEWIGYINPSSDFTNYNQNFADKATLTADRSSSTAYMQLSSLTSEESAVYYCAIRLGYDRQGWYFDVWGAGTTVTVSS VL: DIVMTQSHKFLSTSLGDRVSITCKASQDVGSAVAWYQQKPGQSPDLLIYWTFTRHTGVPDRFTGSRSGTDFTLTISNVQSGDLADYFCQQYSNYPLTFGGGTKLEIK
